Measured values published in article PMC8053085, “Di-phosphorylated BAF shows altered structural dynamics and binding to DNA, but interacts with its nuclear envelope partners” (Nucleic Acids Research, 2021).
Where “and” joins values, the source holds several entries; their conditions need not be identical. Equal values may be shown once.

T1: Di-phosphorylated BAF (BAF phosphorylated by VRK1 on Thr3 and Ser4) (human, UniProt O75531 1-89, glycine as residue 1 instead of the native methionine | C67 mutated into …, phosphothreonine at 3, phosphoserine at 4)
T1 sequence: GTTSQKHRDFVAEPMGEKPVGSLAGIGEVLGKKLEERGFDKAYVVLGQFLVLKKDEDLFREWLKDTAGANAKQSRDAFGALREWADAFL

T2: Barrier-to-autointegration factor (BAF construct with the four cysteines replaced by alanines) (human, UniProt O75531 1-89, glycine as residue 1 instead of the native methionine | C67 mutated into …)
T2 sequence: T1 sequence

T3: IgFold domain of human lamin A/C from amino acid 411 to amino acid 566 (human, UniProt P02545 411-566)
T3 construct: human lamin A/C, residues 411-566 including the IgFold domain; Cloned into a pGEX vector; also called LamIgF; lamin A/C Igfold domain; source: E. coli BL21 DE3 Star, purified (glutathione beads, thrombin cleavage, gel filtration); 15N labelled for NMR
T3 sequence (looked up): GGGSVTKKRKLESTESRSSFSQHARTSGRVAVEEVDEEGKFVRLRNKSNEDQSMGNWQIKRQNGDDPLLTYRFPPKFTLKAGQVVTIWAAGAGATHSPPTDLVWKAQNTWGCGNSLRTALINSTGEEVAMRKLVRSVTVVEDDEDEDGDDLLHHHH

B1: LEM domain of human emerin from amino acid 1 to amino acid 46 (domain or fragment, UniProt P50402 1-46, looked up)
chain: MDNYADLSDTELTTLLRRYNIPHGPVVGSTRRLYEKKIFEYETQRR
notes: human emerin, residues 1-46 (LEM domain); also called emerin LEM domain; LEM fragment
B2: Barrier-to-autointegration factor (BAF construct with the four cysteines replaced by alanines) (natural protein, human, UniProt O75531 1-89, looked up)
chain: T1 sequence
notes: human barrier-to-autointegration factor (BANF1), an 89-aa protein; residue 1 is a glycine left by the TEV site instead of the native methionine; all four cysteines mutated into alanine; also called BAF WT; non-phosphorylated BAF; not shown: His tag, N-terminal, cleaved
B3: Di-phosphorylated BAF (BAF phosphorylated by VRK1 on Thr3 and Ser4) (natural protein, human, UniProt O75531 1-89, looked up)
chain: T1 sequence
modifications: phosphothreonine at 3, phosphoserine at 4
notes: human barrier-to-autointegration factor (BANF1), an 89-aa protein; residue 1 is a glycine left by the TEV site instead of the native methionine; all four cysteines mutated into alanine; phosphorylated on Thr3 and Ser4; Same construct as m1, then phosphorylated; also called pBAF; not shown: His tag, N-terminal, cleaved

Tests used:
[1] = test system: BAF WT (Cys-less construct) (human); assay: fluorescence, dye-labelled coated dsDNA; settings: mean of 5; ITC: 50 mM Tris-HCl pH 8.0, 150 mM NaCl, 15 C, 20 uM BAF in cell, DNA 200 uM (7/21 nt) or 100 uM (48 nt) in syringe; fluorescence assay buffer not given in the …
BAF A12T (human) [2] = assay: fluorescence, dye-labelled coated dsDNA; settings: mean of 4; ITC: 50 mM Tris-HCl pH 8.0, 150 mM NaCl, 15 C, 20 uM BAF in cell, DNA 200 uM (7/21 nt) or 100 uM (48 nt) in syringe; fluorescence assay buffer not given in the …
BAF S4E (human) = assay: fluorescence, dye-labelled coated dsDNA; settings: mean of 2; ITC: 50 mM Tris-HCl pH 8.0, 150 mM NaCl, 15 C, 20 uM BAF in cell, DNA 200 uM (7/21 nt) or 100 uM (48 nt) in syringe; fluorescence assay buffer not given in the …
[3] = test system: pBAF (pThr3, pSer4) (human); assay: fluorescence, dye-labelled coated dsDNA; settings: mean of 2; ITC: 50 mM Tris-HCl pH 8.0, 150 mM NaCl, 15 C, 20 uM BAF in cell, DNA 200 uM (7/21 nt) or 100 uM (48 nt) in syringe; fluorescence assay buffer not given in the …
[4] = test system: BAF WT (Cys-less construct) (human); assay: ITC; settings: ITC: 50 mM Tris-HCl pH 8.0, 150 mM NaCl, 15 C, 20 uM BAF in cell, DNA 200 uM (7/21 nt) or 100 uM (48 nt) in syringe; fluorescence assay buffer not given in the …
BAF A12T (human) [5] = assay: ITC; settings: ITC: 50 mM Tris-HCl pH 8.0, 150 mM NaCl, 15 C, 20 uM BAF in cell, DNA 200 uM (7/21 nt) or 100 uM (48 nt) in syringe; fluorescence assay buffer not given in the …
[6] = target: B2; assay: ITC; VP-ITC, 15°C; BAF or pBAF dimers at 20 μM in the cell titrated with LamIgF at 100 μM or LEM at 150 μM in the syringe; 50 mM HEPES pH 7.4, 150 mM NaCl; in duplicate; settings: both partners purified
[7] = target: B3; assay: as above; settings: both partners purified
[8] = target: T1, Di-phosphorylated BAF (BAF …); assay: ITC; phosphorylated BAF (pThr3, pSer4)
[9] = target: T2, Barrier-to-autointegration factor (BAF …); assay: ITC
[10] = target: T3, IgFold domain of human lamin A/C from …; assay: ITC; VP-ITC, 15°C; BAF or pBAF dimers at 20 μM in the cell titrated with LamIgF at 100 μM or LEM at 150 μM in the syringe; 50 mM HEPES pH 7.4, 150 mM NaCl; in duplicate; settings: both partners purified

Molecule: 48 nt dsDNA, coated
Kd [1]: 2.54 nM | Kd (BAF A12T (human) [2]): 2.5 nM | Kd (BAF S4E (human)): 15000 nM | Kd [3]: 10700 nM

Molecule: 48 nt dsDNA (ITC)
Kd [4]: 41.1 nM | Kd (BAF A12T (human) [5]): 28.8 nM

Molecule: 7 nt dsDNA
Kd [4]: 1000 nM and 2100 nM | Kd (BAF A12T (human) [5]): 1700 nM and 920 nM

Molecule: 21 nt dsDNA
Kd [4]: 170 nM and 110 nM | Kd (BAF A12T (human) [5]): 300 nM and 210 nM

Molecule: B1
Kd [6]: ~1000 nM | Kd [7]: ~1000 nM | Kd [8]: 700 nM | Kd [9]: 1100 nM

Molecule: B2
Kd [10]: 4500 ± 500 nM

Molecule: B3
Kd [10]: 4900 ± 800 nM
